Experimental data reported in patent publication US20170240645A1 (Genentech, published 2017).
Each block holds one binder with its values, some of them ahead of it.

Legend:
human PMEL17 [1] = molecular target: T1, human PMEL17 (human, UniProt P40967 25-661); test: FACS screen of hybridoma clones
T1 construct: Untagged PMEL17 as it occurs on melanoma cell lines, normal human melanocytes, PC3 cells stably expressing PMEL17 cDNA, and in human tissue sections; also called Melanocyte protein PMEL17
T1 sequence: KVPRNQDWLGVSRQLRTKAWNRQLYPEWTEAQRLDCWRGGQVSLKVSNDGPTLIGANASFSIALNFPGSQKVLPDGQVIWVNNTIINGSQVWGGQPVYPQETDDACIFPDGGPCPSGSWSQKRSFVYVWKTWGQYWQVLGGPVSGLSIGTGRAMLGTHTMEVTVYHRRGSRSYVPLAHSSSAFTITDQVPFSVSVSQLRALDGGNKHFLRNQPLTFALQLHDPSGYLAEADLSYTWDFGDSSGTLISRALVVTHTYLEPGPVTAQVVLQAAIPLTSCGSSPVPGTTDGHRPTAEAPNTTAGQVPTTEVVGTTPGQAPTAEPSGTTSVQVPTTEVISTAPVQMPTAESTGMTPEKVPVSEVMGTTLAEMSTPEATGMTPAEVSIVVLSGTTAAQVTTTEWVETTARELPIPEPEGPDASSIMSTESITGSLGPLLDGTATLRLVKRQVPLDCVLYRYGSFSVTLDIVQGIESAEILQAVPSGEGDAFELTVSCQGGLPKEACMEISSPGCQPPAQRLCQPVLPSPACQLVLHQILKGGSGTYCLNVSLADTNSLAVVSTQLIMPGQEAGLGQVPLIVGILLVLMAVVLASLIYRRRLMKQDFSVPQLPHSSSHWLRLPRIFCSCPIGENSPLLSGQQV

human PMEL17 [2] = molecular target: T1, human PMEL17; test: flow cytometry on parental and in vivo-derived resistant UACC-257X2.2 melanoma cells, detected with anti-human Alexa 488 conjugate; control peak is secondary antibody only
Protocol: Expression of ETBR and PMEL17 on the surface of the in vivo- and in vitro-derived resistant UACC-257X2.2 cells and the parental UACC-257X2.2 cells was then determined by FACS. Cells were stained with anti-ETBR antibody (hu5E9.v1 or ch5E9) or with anti-PMEL17 antibody (ch17A9), followed by an anti-human Alexa 488 antibody conjugate. […] Surface expression of PMEL17 was unchanged in the resistant cells as compared to the parental cells.

[3] = molecular target: T2, endothelin B receptor (ETBR) (UniProt P24530 27-442, limits assumed); test: cell-based or functional assay
T2 sequence (looked up): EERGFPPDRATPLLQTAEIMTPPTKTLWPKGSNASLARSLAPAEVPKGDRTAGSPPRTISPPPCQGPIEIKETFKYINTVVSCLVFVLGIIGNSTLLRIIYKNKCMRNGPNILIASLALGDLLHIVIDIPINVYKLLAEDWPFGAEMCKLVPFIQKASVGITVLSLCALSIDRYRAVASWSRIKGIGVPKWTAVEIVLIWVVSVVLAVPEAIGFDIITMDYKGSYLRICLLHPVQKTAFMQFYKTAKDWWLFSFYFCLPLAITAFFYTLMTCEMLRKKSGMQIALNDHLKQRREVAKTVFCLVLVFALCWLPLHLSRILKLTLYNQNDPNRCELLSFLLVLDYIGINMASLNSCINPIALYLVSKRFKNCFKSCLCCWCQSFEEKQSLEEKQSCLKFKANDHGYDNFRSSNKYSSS

B1: 15F2 (antibody, V domains shown)
VH: QVQLKESGPGLVAPSQSLSITCTVSGFSLTKYGVHWVRQPPGKGLEWLGVIWAGGNTNYNSALMSRLSINKDNSKSQVFLKMNSLQTDDTAMYYCATFDVWGAGTTVTVSS
VL: DIVMTQAAPSVPVTPGESVSISCRSSKSLLHSNGNTFLYWFLQRPGQSPQLLIYRMSNLVSGVPDRFSGSGSGTAFTLRISRVEAEDVGFYYCMQHLEYPYTFGGGTKLELK
notes: Mouse monoclonal antibody from a hybridoma
binding result (human PMEL17 [1]): binds

B4: anti-ETBR-PNU (ch5E9 conjugated to MC-PNU-159682 through a non-cleavable linker) (antibody, human IgG1, kappa, V domains shown)
VH: QVQLLQSGAELARPGASVKLSCKASGYTFTSYWMQWVKQRPGQGLEWIGTIYPGDGDTSYAQKFKGKATLTTDKYSSTAYMQLSSLASEDSAVYYCARWGYAYDIDNWGQGTLVTVSS
VL: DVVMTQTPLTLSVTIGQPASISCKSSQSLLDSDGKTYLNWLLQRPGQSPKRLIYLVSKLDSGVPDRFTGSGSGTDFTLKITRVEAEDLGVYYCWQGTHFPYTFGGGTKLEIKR
modifications: MC-PNU-159682 on reduced cysteine residues of the antibody
EC50 of cell survival (CellTiter-Glo), in vitro derived resistant UACC-257X2.2 cells [3]: 0.0146 µg/mL
EC50 of cell survival (CellTiter-Glo), in vivo derived resistant UACC-257X2.2 cells [3]: 0.0143 µg/mL
EC50 of cell survival (CellTiter-Glo), parental UACC-257X2.2 cells [3]: 0.0042 µg/mL

Further lines, results first:

binding result (human PMEL17 [2]): binds
B2: ch17A9 (antibody, human IgG1, kappa, V domains shown)
VH: EVQLQQSGPELVKPGASMKISCKSSGYSFTRYTMNWVKQSHGKNLEWIGVINPYNGGTVYNQKFKGKATLTVDKSSSTAYMELLSLTSEDSAVYYCARTDYDGYAMDYWGQGTSVTVSS
VL: DVQITQSPSYLAASPGETITINCRATKSISKYLAWYQEQPGKTNNLLIYSGSTLQSGIPSRFSGSGSGTDFTLTISSLEPEDFAMYYCQQHNEYPYTFGSGTKLEIKR
notes: also called chimeric 17A9

binding result (human PMEL17 [1]): binds
B3: 8G3 (antibody, V domains shown)
VH: EVQLQQSGPELVKPGASMRISCKASGYSFTGYTMNWVKQSHGKNLEWIGVYNPYNGGTVYNQKFKGKATLTVDKSSSTTYMELLSLTSEDSAVYYCARTDSGGYAMDCWGQGTSVTVSS
VL: DVQITQSPSYLDASPGETITINCRASKTISKYLAWYQEKPGKTNKLLIYSGSTLQSGIPSRFSGSGSGTDFTLTISSLEPEDFAMYYCQQHNEYPYTFGSGTKLEIK
notes: as for B1
